This is an account of results in PMC12581312, “Lung endothelial PEAR1 induces tumor cell dormancy” (Molecular Cancer, 2025).

The experiment has as its target T1, Human recombinant LOXL2 (lysyl oxidase like 2) (human, UniProt Q9Y4K0 26-774).
T1 construct: lysyl oxidase like 2 (LOXL2), human, recombinant; source: bought: R&D Systems (catalog #2639-AO-010)
T1 sequence (looked up): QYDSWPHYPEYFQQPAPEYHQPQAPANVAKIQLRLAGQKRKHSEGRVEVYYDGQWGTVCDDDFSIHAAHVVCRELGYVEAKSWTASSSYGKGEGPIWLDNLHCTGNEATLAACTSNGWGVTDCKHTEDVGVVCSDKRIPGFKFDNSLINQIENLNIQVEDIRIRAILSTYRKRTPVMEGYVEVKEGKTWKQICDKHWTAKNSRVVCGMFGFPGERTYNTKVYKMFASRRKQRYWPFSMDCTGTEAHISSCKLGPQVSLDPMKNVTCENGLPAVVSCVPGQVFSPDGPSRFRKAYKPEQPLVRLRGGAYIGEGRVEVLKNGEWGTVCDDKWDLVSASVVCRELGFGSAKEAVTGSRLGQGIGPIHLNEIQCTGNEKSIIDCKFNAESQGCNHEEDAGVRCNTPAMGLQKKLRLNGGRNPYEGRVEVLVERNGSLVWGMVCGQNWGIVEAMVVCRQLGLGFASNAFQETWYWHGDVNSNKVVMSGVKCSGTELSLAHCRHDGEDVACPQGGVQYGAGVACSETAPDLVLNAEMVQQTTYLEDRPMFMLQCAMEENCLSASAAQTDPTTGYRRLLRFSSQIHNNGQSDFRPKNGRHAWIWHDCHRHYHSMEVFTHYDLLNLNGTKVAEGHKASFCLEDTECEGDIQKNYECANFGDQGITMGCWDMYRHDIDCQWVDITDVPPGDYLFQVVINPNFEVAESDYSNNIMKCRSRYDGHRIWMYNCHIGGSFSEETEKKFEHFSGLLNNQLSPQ
As to the kind of experiment: pull-down; recombinant human PEAR1 (100 nM) immobilised on Ni-NTA magnetic beads, incubated with 100 nM recombinant human CTSD, SEMA6D or LOXL2 in 50 mM NaH2PO4, 300 mM NaCl, 20 mM imidazole, pH 8.0, 1 h at room temperature; control Ni-NTA beads; immunoblotting. The conditions noted are these: both partners purified. A general note: Immunoblotting shows a protein as a band on a membrane.

B1: Human recombinant PEAR1 extracellular part (platelet and endothelial aggregation receptor 1), His-tagged (domain or fragment, UniProt Q5VY43 21-755, looked up)
chain: LNPSDPNTCSFWESFTTTTKESHSRPFSLLPSEPCERPWEGPHTCPQPTVVYRTVYRQVVKTDHRQRLQCCHGFYESRGFCVPLCAQECVHGRCVAPNQCQCVPGWRGDDCSSECAPGMWGPQCDKPCSCGNNSSCDPKSGVCSCPSGLQPPNCLQPCTPGYYGPACQFRCQCHGAPCDPQTGACFCPAERTGPSCDVSCSQGTSGFFCPSTHSCQNGGVFQTPQGSCSCPPGWMGTICSLPCPEGFHGPNCSQECRCHNGGLCDRFTGQCRCAPGYTGDRCREECPVGRFGQDCAETCDCAPDARCFPANGACLCEHGFTGDRCTDRLCPDGFYGLSCQAPCTCDREHSLSCHPMNGECSCLPGWAGLHCNESCPQDTHGPGCQEHCLCLHGGVCQATSGLCQCAPGYTGPHCASLCPPDTYGVNCSARCSCENAIACSPIDGECVCKEGWQRGNCSVPCPPGTWGFSCNASCQCAHEAVCSPQTGACTCTPGWHGAHCQLPCPKGQFGEGCASRCDCDHSDGCDPVHGRCQCQAGWMGARCHLSCPEGLWGVNCSNTCTCKNGGTCLPENGNCVCAPGFRGPSCQRSCQPGRYGKRCVPCKCANHSFCHPSNGTCYCLAGWTGPDCSQPCPPGHWGENCAQTCQCHHGGTCHPQDGSCICPLGWTGHHCLEGCPLGTFGANCSQPCQCGPGEKCHPETGACVCPPGHSGAPCRIGIQEPFTVMPTTPVAYNSL
notes: platelet and endothelial aggregation receptor 1 (PEAR1), human, extracellular part; Held on Ni-NTA magnetic agarose beads by its His tag in the pull-downs; also called rhPEAR1; PEAR1 agarose; source: bought: R&D Systems (catalog #4527-PR-050)
With B1, the binding result is recorded as “binds”.
